Experimental data reported in publication PMC12462528, “Molecular basis of ParA ATPase activation by the CTPase ParB during bacterial chromosome segregation” (Nature Communications, 2025).

T1: ParA (wild type) (Myxococcus xanthus DK1622, UniProt Q1CVJ3 1-283)
T1 construct: ParA of Myxococcus xanthus DK1622, translation product of ORF MXAN_7477; No tag cleavage step is described; also called His6-ParA; wild-type ParA; source: E. coli Rosetta(DE3)pLysS, purified (HisTrap HP, HiTrap Q HP)
T1 sequence (looked up): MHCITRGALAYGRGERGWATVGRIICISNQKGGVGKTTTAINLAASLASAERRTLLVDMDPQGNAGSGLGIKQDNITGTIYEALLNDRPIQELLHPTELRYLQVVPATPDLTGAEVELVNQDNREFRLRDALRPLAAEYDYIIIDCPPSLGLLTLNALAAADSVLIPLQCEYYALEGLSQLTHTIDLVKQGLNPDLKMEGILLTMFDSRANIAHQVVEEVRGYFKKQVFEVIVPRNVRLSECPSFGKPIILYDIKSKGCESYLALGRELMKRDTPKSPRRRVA

T2: His6-ParA_(21-274)-D60A (Myxococcus xanthus DK1622, UniProt Q1CVJ3 21-274, D60A)
T2 construct: For NMR the protein was 2H/13C/15N-labelled; source: E. coli Rosetta(DE3)pLysS, purified (as His6-ParA)
T2 sequence (looked up): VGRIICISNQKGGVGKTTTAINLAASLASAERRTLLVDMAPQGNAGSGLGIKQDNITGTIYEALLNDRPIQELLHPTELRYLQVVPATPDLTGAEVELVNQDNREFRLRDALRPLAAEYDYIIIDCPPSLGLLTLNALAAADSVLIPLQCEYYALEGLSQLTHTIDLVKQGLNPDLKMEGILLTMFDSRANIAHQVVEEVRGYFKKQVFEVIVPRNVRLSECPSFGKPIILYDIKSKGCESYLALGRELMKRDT


Experiments:
ParA (wild type) = target: T1, ParA (wild type); test: HDX-MS; 50 µM ParA or ParA-D60A with 1 mM ATP, with or without 1 mM ParB_(1-20) and/or 1 mg/mL salmon sperm DNA; 25 °C (Datasets 1 and 2); conditions: both partners purified
His6-ParA_(21-274)-D60A = target: T2, His6-ParA_(21-274)-D60A; test: NMR titration; 2H/13C/15N-labelled ParA_(21-274)-D60A (300 µM) titrated with unlabelled ParB_(1-20) to 1:5.8; TROSY 1H-15N HSQC, 298 K, 50 mM HEPES pH 6.8, 150 mM KCl, 5 mM MgSO4, 1 mM DTT, 1 mM ATP; conditions: both partners purified
[1] = target: the molecule itself; test: HDX-MS; 50 µM ParA or ParA-D60A with 1 mM ATP, with or without 1 mM ParB_(1-20) and/or 1 mg/mL salmon sperm DNA; 25 °C (Datasets 1 and 2)

Row | Binder | binding result (ParA (wild type)) | binding result (His6-ParA_(21-274)-D60A) | binding result [1]
1 | MVKADMQKRALGRGLSALIP (peptide, UniProt Q1CVJ4 1-20, looked up, also called N-terminal peptide of ParB; source: synthetic peptide) [ParB_(1-20) peptide] | binds | binds | –
2 | ParA-D60A (natural protein, Myxococcus xanthus DK1622, UniProt Q1CVJ3 1-283, looked up, ParA of Myxococcus xanthus DK1622 lacking the catalytic aspartic acid D60; also called ATPase-deficient ParA variant; source: E. coli Rosetta(DE3)pLysS, purified (as His6-ParA)) MHCITRGALAYGRGERGWATVGRIICISNQKGGVGKTTTAINLAASLASAERRTLLVDMAPQGNAGSGLGIKQDNITGTIYEALLNDRPIQELLHPTELRYLQVVPATPDLTGAEVELVNQDNREFRLRDALRPLAAEYDYIIIDCPPSLGLLTLNALAAADSVLIPLQCEYYALEGLSQLTHTIDLVKQGLNPDLKMEGILLTMFDSRANIAHQVVEEVRGYFKKQVFEVIVPRNVRLSECPSFGKPIILYDIKSKGCESYLALGRELMKRDTPKSPRRRVA | – | – | binds
